From patent publication US20220402983A1 (Janssen / Centocor, published 2022)
*1 amine or outer side, *2 acyl side, *3 side chain or, on linkers, in order; H or OH if unused. Bridges are numbered along the chain shown (N, C = ends). Where no end group is shown, it is not given here. [ ]: non-standard residue; d: D form. The star is where a group is joined. Trp(7-Me) = Cc1cccc2c(C[C@H](N)C(=O)O)c[nH]c12; 2Nal = N[C@@H](Cc1ccc2ccccc2c1)C(=O)O; AEF = NCCOc1ccc(C[C@H](N)C(=O)O)cc1; αMeF = C[C@](N)(Cc1ccccc1)C(=O)O; NMeβAla = CN(CCC(=O)[*:2])[*:1]; Pen = CC(C)(S)[C@H](N)C(=O)O; Thp = NC1(C(=O)O)CCOCC1; Propionyl = CCC(=O)*

T1: human IL-23R (interleukin-23 receptor) (human, UniProt Q5VWK5 24-629)
T1 sequence (looked up): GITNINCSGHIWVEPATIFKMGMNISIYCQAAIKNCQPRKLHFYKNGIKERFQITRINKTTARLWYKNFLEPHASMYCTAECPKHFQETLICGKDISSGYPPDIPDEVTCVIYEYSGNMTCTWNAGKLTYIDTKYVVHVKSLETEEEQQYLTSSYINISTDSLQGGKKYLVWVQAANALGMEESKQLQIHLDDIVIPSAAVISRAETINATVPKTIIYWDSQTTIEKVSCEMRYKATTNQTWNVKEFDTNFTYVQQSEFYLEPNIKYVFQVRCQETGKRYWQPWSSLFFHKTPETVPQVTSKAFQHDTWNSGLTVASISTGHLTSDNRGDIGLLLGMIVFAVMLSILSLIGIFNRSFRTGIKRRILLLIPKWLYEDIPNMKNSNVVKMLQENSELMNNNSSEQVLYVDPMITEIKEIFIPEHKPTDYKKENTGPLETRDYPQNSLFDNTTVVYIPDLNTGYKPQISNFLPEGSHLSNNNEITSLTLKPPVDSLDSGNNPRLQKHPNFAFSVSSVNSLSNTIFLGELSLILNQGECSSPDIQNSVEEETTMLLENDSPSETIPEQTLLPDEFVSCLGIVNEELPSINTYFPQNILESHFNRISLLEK

B1: Compound No. 8 (peptide)
peptide: Propionyl-[dR][Pen]QTWQ[Pen][AEF][2Nal][Thp]EN[NMeβAla]-NH2
modifications: disulfide 2-7
SMILES: CCC(=O)N[C@H](CCCNC(=N)N)C(=O)N[C@@H]1C(=O)N[C@@H](CCC(N)=O)C(=O)N[C@@H]([C@@H](C)O)C(=O)N[C@@H](Cc2c[nH]c3ccccc23)C(=O)N[C@@H](CCC(N)=O)C(=O)N[C@H](C(=O)N[C@@H](Cc2ccc(OCCN)cc2)C(=O)N[C@@H](Cc2ccc3ccccc3c2)C(=O)NC2(C(=O)N[C@@H](CCC(=O)O)C(=O)N[C@@H](CC(N)=O)C(=O)N(C)CCC(N)=O)CCOCC2)C(C)(C)SSC1(C)C
B2: Compound No. 3 (peptide)
peptide: Propionyl-[dR][Pen]QTWQ[Pen][AEF][2Nal][Thp]EN[αMeF]-NH2
modifications: disulfide 2-7
SMILES: CCC(=O)N[C@H](CCCNC(=N)N)C(=O)N[C@@H]1C(=O)N[C@@H](CCC(N)=O)C(=O)N[C@@H]([C@@H](C)O)C(=O)N[C@@H](Cc2c[nH]c3ccccc23)C(=O)N[C@@H](CCC(N)=O)C(=O)N[C@H](C(=O)N[C@@H](Cc2ccc(OCCN)cc2)C(=O)N[C@@H](Cc2ccc3ccccc3c2)C(=O)NC2(C(=O)N[C@@H](CCC(=O)O)C(=O)N[C@@H](CC(N)=O)C(=O)N[C@@](C)(Cc3ccccc3)C(N)=O)CCOCC2)C(C)(C)SSC1(C)C
B3: Compound No. 111 (peptide)
peptide: Ac-[dR][Pen]NT[Trp(7-Me)]K(Ac)[Pen][AEF][2Nal][Thp]K(Ac)N[αMeF]-NH2
modifications: disulfide 2-7
SMILES: CC(=O)NCCCC[C@@H]1NC(=O)[C@H](Cc2c[nH]c3c(C)cccc23)NC(=O)[C@H]([C@@H](C)O)NC(=O)[C@H](CC(N)=O)NC(=O)[C@@H](NC(=O)[C@@H](CCCNC(=N)N)NC(C)=O)C(C)(C)SSC(C)(C)[C@@H](C(=O)N[C@@H](Cc2ccc(OCCN)cc2)C(=O)N[C@@H](Cc2ccc3ccccc3c2)C(=O)NC2(C(=O)N[C@@H](CCCCNC(C)=O)C(=O)N[C@@H](CC(N)=O)C(=O)N[C@@](C)(Cc3ccccc3)C(N)=O)CCOCC2)NC1=O
B4: Compound No. 10 (peptide)
peptide: Propionyl-[dR][Pen]QTWQ[Pen][AEF][2Nal][Thp]EN[Thp]-NH2
modifications: disulfide 2-7
SMILES: CCC(=O)N[C@H](CCCNC(=N)N)C(=O)N[C@@H]1C(=O)N[C@@H](CCC(N)=O)C(=O)N[C@@H]([C@@H](C)O)C(=O)N[C@@H](Cc2c[nH]c3ccccc23)C(=O)N[C@@H](CCC(N)=O)C(=O)N[C@H](C(=O)N[C@@H](Cc2ccc(OCCN)cc2)C(=O)N[C@@H](Cc2ccc3ccccc3c2)C(=O)NC2(C(=O)N[C@@H](CCC(=O)O)C(=O)N[C@@H](CC(N)=O)C(=O)NC3(C(N)=O)CCOCC3)CCOCC2)C(C)(C)SSC1(C)C

The binders below were run against T1, human IL-23R (interleukin-23 receptor) (assay: cell-based or functional assay).

PBMC pSTAT3 IC50 (nM) | pStat3 HTRF (nM), IC50, DB cells IL23R pSTAT3 cell assay [nM] | Binder
29 | 3.12 | [dR][Pen]QTWQ[Pen][AEF][2Nal][Thp]EN[Thp]-NH2 (disulfide 2-7; not fully specified (N-terminus)) [Compound No. 9]
– | 24.6 | B1
40 | 2.31 | B2
– | 1.29 | B3
4.6 | 4.16 | B4

Biological target: T1, human IL-23R (interleukin-23 receptor)
Assay: cell-based or functional assay
Remark: another data set of the same source

NK Cell Assay (nM), IC50, IFN-gamma after IL-23 and IL-18 [nM] | Binder
11.6 | [dR][Pen]QTWQ[Pen][AEF][2Nal][Thp]EN[Thp]-NH2 (disulfide 2-7; not fully specified (N-terminus)) [Compound No. 9]
72.3 | B1
20.1 | B2
6.51 | B3
8.29 | B4
